First the molecules themselves.
B1: humanized 31.1 antibody #5 (abb31.1-HC + cdr31.1-LC) (antibody, human IgG1, kappa, V domains shown)
VH: QIQLVQSGAEVKKPGASVKVSCKASGYTFTNYGMNWVRQAPGKGLEWMGWINTYTGEPTYAQKFQGRVTFTLDTSISTAYMELSRLRSDDTAVYFCARAYYGKYFDYWGQGTTVTVSS
VL: SIVMTQSPSSLSASVGDRVTITCKASQSVSNDVAWYQQKPGQSPKLLIYYASNRYTGVPDRFSGSGYGTDFTLTISSLQPEDFAVYFCQQDYSSPLTFGAGTKLEIKR
notes: Full heavy and light chains; supernatant in the first screen, Protein A/G purified in the second round; also called Sample ID 5; abb-HC + cdr-LC
B2: H31.1 #5-biotin (antibody, human IgG1, kappa, V domains shown)
VH: B1 VH
VL: B1 VL
modifications: biotinylated antibody, sites not stated
notes: Biotinylated form of antibody #5; also called biotinylated #5; biotinylated h31.1 #5
B3: humanized 31.1 antibody #6 (abb31.1-HC + abb31.1-LC) (antibody, human IgG1, kappa, V domains shown)
VH: B1 VH
VL: B1 VL with V3Q, K24R, T56S
notes: Full heavy and light chains; supernatant in the first screen, Protein A/G purified in the second round; also called Sample ID 6; abb-HC + abb-LC
B4: H31.1 #6-biotin (antibody, human IgG1, kappa, V domains shown)
VH: B1 VH
VL: B1 VL with V3Q, K24R, T56S
modifications: biotinylated antibody, sites not stated
notes: Biotinylated form of antibody #6; also called biotinylated #6; biotinylated h31.1 #6
B5: humanized 31.1 antibody #16 (ven31.1-HC + ven31.1-LC) (antibody, human IgG1, kappa, V domains shown)
VH: QIQLVQSGPEVKKPGASVKISCKASGYTFTNYGMNWVKQAPGQGLKWMGWINTYTGEPTYADDFKGRFAFTLDTSISTAYLEISRLRSDDTAVYFCARAYYGKYFDYWGQGTTLTVSS
VL: B1 VL with A13V, L73F, L78V, F83L, I106L
notes: Full heavy and light chains; supernatant in the first screen, Protein A/G purified in the third round; also called Sample ID 16; ven-HC + ven-LC
B6: humanized 31.1 antibody #14 (ven-HC + abb-LC) (antibody, human IgG1, kappa, V domains shown)
VH: B5 VH
VL: B1 VL with V3Q, K24R, T56S
notes: Full heavy and light chains; transient Expi293 expression, tested as culture supernatant; also called Sample ID 14; ven31.1-HC + abb31.1-LC
B7: humanized 31.1 antibody #10 (sdr-HC + abb-LC) (antibody, human IgG1, kappa, V domains shown)
VH: B1 VH with T53P
VL: B1 VL with V3Q, K24R, T56S
notes: Full heavy and light chains; transient Expi293 expression, tested as culture supernatant; also called Sample ID 10; sdr31.1-HC + abb31.1-LC
B8: humanized 31.1 antibody #15 (ven-HC + sdr-LC) (antibody, human IgG1, kappa, V domains shown)
VH: B5 VH
VL: B1 VL with V3Q, K24R, V29I, V33L
notes: Full heavy and light chains; transient Expi293 expression, tested as culture supernatant; also called Sample ID 15; ven31.1-HC + sdr31.1-LC
B9: humanized 31.1 antibody #13 (ven-HC + cdr-LC) (antibody, human IgG1, kappa, V domains shown)
VH: B5 VH
VL: B1 VL
notes: Full heavy and light chains; transient Expi293 expression, tested as culture supernatant; also called Sample ID 13; ven31.1-HC + cdr31.1-LC
B10: humanized 31.1 antibody #1 (cdr-HC + cdr-LC) (antibody, human IgG1, kappa, V domains shown)
VH: B5 VH with P9A, I20V, Q43K, L81M, I83L, L114V
VL: B1 VL
notes: Full heavy (448 aa) and light (214 aa) chains; transient Expi293 expression, tested as culture supernatant; also called Sample ID 1; cdr31.1-HC + cdr31.1-LC
B11: humanized 31.1 antibody #2 (cdr-HC + abb-LC) (antibody, human IgG1, kappa, V domains shown)
VH: B5 VH with P9A, I20V, Q43K, L81M, I83L, L114V
VL: B1 VL with V3Q, K24R, T56S
notes: Full heavy and light chains; transient Expi293 expression, tested as culture supernatant; also called Sample ID 2; cdr31.1-HC + abb31.1-LC
B12: humanized 31.1 antibody #12 (sdr-HC + ven-LC) (antibody, human IgG1, kappa, V domains shown)
VH: B1 VH with T53P
VL: B1 VL with A13V, L73F, L78V, F83L, I106L
notes: Full heavy and light chains; transient Expi293 expression, tested as culture supernatant; also called Sample ID 12; sdr31.1-HC + ven31.1-LC
B13: humanized 31.1 antibody #8 (abb-HC + ven-LC) (antibody, human IgG1, kappa, V domains shown)
VH: B1 VH
VL: B1 VL with A13V, L73F, L78V, F83L, I106L
notes: Full heavy and light chains; transient Expi293 expression, tested as culture supernatant; also called Sample ID 8; abb31.1-HC + ven31.1-LC
B14: humanized 31.1 antibody #3 (cdr-HC + sdr-LC) (antibody, human IgG1, kappa, V domains shown)
VH: B5 VH with P9A, I20V, Q43K, L81M, I83L, L114V
VL: B1 VL with V3Q, K24R, V29I, V33L
notes: Full heavy and light chains; transient Expi293 expression, tested as culture supernatant; also called Sample ID 3; cdr31.1-HC + sdr31.1-LC
B15: humanized 31.1 antibody #7 (abb-HC + sdr-LC) (antibody, human IgG1, kappa, V domains shown)
VH: B1 VH
VL: B1 VL with V3Q, K24R, V29I, V33L
notes: Full heavy and light chains; transient Expi293 expression, tested as culture supernatant; also called Sample ID 7; abb31.1-HC + sdr31.1-LC
B16: humanized 31.1 antibody #4 (cdr-HC + ven-LC) (antibody, human IgG1, kappa, V domains shown)
VH: B5 VH with P9A, I20V, Q43K, L81M, I83L, L114V
VL: B1 VL with A13V, L73F, L78V, F83L, I106L
notes: Full heavy and light chains; transient Expi293 expression, tested as culture supernatant; also called Sample ID 4; cdr31.1-HC + ven31.1-LC
B17: humanized 31.1 antibody #9 (sdr-HC + cdr-LC) (antibody, human IgG1, kappa, V domains shown)
VH: B1 VH with T53P
VL: B1 VL
notes: Full heavy and light chains; transient Expi293 expression, tested as culture supernatant; also called Sample ID 9; sdr31.1-HC + cdr31.1-LC

Changes are numbered by the printed parent chain.

The values below come from US20230295298A1 (PRECISION BIOLOGICS, published 2023).

The target of the first experiment is T1, human A33 antigen, full length, on cells (human, UniProt Q99795 22-319).
T1 construct: CHO cells transfected with full length A33 cDNA (A33-CHO), or endogenous antigen of LS174T (colon) and AsPC-1 (pancreatic) tumour cells; The cell line is named under assay; also called A33-CHO; A33 antigen on LS174T cells
T1 sequence: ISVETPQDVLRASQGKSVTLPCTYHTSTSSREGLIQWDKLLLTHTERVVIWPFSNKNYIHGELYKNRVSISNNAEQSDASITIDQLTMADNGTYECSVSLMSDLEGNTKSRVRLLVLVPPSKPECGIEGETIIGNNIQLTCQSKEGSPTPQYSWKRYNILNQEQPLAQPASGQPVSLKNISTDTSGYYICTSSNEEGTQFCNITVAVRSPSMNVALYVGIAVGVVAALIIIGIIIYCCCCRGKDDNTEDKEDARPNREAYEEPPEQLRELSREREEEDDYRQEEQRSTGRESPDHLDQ
As to the kind of experiment: flow cytometry, AsPC-1 cells (first AsPC-1 column). In general terms: In flow cytometry, cells or beads pass a laser one at a time.
Broadly, the EC50 is the concentration giving half of the maximal effect. In turn, B1 showed an EC50 of 0.235 µg/mL.
Same read-out and setting: the same measure for B2: 0.408 µg/mL; for B3: 0.276 µg/mL.
The same measure, in the same setting: the same measure for B4: 0.368 µg/mL.

The target in the next experiment is T1, human A33 antigen, full length, on cells. As to the kind of experiment: IHC on LS174T FFPE sections, 20ug/mL, repeat result.
B1: the “H-Score of IHC” value was 100 H-Score.
For the molecule B5, the “H-Score of IHC” value was found to be 0 H-Score.
For B6, the “H-Score of IHC” value came to 30 H-Score.
Take B3: the “H-Score of IHC” value came to 240 H-Score.
Same read-out and setting: the same measure for B7: 115 H-Score.

In the next experiment the target is T2, human recombinant A33 antigen (human, UniProt Q99795 22-235).
T2 construct: also called rH-GPA33; rHGPA33
T2 sequence: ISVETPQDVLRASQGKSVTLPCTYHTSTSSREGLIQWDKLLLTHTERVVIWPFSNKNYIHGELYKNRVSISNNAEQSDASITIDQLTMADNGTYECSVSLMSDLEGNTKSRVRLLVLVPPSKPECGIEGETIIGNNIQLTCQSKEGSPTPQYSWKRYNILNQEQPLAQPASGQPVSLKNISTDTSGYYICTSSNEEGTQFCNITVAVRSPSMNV
Briefly: rH-GPA33 binding ELISA. On the technique in general: An ELISA detects its analyte on a solid surface through an enzyme-linked reagent.
For B1, the EC50 is 0.396 µg/mL.
For the molecule B2, the EC50 was found to be 0.679 µg/mL.
The same measure, in the same setting: the same measure for B3: 1.23 µg/mL.
For the molecule B4, the EC50 turned out to be 12.8 µg/mL.

The target of another experiment is T1, human A33 antigen, full length, on cells. As to the kind of experiment: IHC on LS174T FFPE sections, 20ug/mL, first result.
As for B1, the “H-Score of IHC” value was 240 H-Score.
As for B5, the “H-Score of IHC” value came out at 0 H-Score.
With B6, the “H-Score of IHC” value worked out at 125 H-Score.
Same read-out and setting: the same measure for B3: 230 H-Score; for B7: 240 H-Score.

For another experiment the target is unchanged. Briefly: flow cytometry on LS174T cells, 0.37ug/mL. The procedure: (§1) Human IgG ELISA, rH-GPA33 Binding ELISA, cell Flow Cytometry (LS174T or AsPAC1), IHC staining (LS174T FFPE, tumor FFPE and Frozen tumor sections) and Coomassie blue staining of SDS-PAGE gel were used for the screening. Antibody in the culture supernatant was purified by Protein A/G purification in the column and dissolved in PBS buffer after three times dialysis. Aliquots of the antibodies were kept at -20° C. for storage.
(§2) Each combination was produced by transient transfection by using Expi293 Expression System Kit (Gibco, cat# A14635). […] Methods of Human IgG ELISA, rH-GPA33 Binding ELISA, LS174T cell Flow Cytometry, IHC staining on LS174T FFPE sections and Coomassie blue staining of SDS-PAGE gel were used for the initial screening.
B1: the MFI was 804 MFI.
On the same count and under the same terms, the same measure for B5: 966 MFI.
The same measure, in the same setting: the same measure for B6: 1060 MFI; for B8: 689 MFI; for B9: 1150 MFI.
Same read-out and setting: the same measure for B3: 628 MFI; for B10: 878 MFI; for B11: 821 MFI.
Regarding B12, the MFI turned out to be 10.6 MFI.
Turning to B13, the MFI turned out to be 934 MFI.
The same measure, in the same setting: the same measure for B14: 520 MFI; for B15: 481 MFI.
Still for that read-out and setting: the same measure for B16: 726 MFI.
On the same count and under the same terms, the same measure for B17: 6.65 MFI; for B7: 6.2 MFI.

For another experiment the target is unchanged. Briefly: flow cytometry, AsPC-1 cells (second AsPC-1 column).
The molecule B1 had an EC50 of 0.122 µg/mL.
On the same count and under the same terms, the same measure for B3: 0.152 µg/mL.

A further experiment shares this target. As to the kind of experiment: IHC on LS174T FFPE sections, 20ug/mL. Here is the method: as §1, §2
For the molecule B8, the “H-Score of IHC” value stood at 90 H-Score.
Consider B9, for which the “H-Score of IHC” value was determined as 20 H-Score.
Same read-out and setting: the same measure for B10: 0 H-Score.
Regarding B11, the “H-Score of IHC” value was determined as 0 H-Score.
Same read-out and setting: the same measure for B12: 30 H-Score; for B13: 125 H-Score; for B14: 0 H-Score.
Still for that read-out and setting: the same measure for B15: 120 H-Score.
Consider B16, for which the “H-Score of IHC” value worked out at 0 H-Score.
As to B17, the “H-Score of IHC” value turned out to be 150 H-Score.

The target of a further experiment is T2, human recombinant A33 antigen. As to the kind of experiment: rH-GPA33 binding ELISA, 2ug/mL of 31.1, supernatant. The procedure: as §1, §2
With B1, the “OD Value of rH-GPA33 Binding ELISA” value was 0.85 OD.
Still for that read-out and setting: the same measure for B5: 1.74 OD.
Still for that read-out and setting: the same measure for B6: 1.44 OD.
With B8, the “OD Value of rH-GPA33 Binding ELISA” value came to 0.46 OD.
On the same count and under the same terms, the same measure for B9: 1.27 OD; for B3: 0.74 OD.
On the same count and under the same terms, the same measure for B10: 0.8 OD; for B11: 0.86 OD.
The same measure, in the same setting: the same measure for B12: 0.06 OD; for B13: 1.2 OD.
In the case of B14, the “OD Value of rH-GPA33 Binding ELISA” value was 0.29 OD.
Same read-out and setting: the same measure for B15: 0.2 OD; for B16: 1.27 OD.
Still for that read-out and setting: the same measure for B17: 0.07 OD; for B7: 0.07 OD.

A further experiment has as its target T1, human A33 antigen, full length, on cells. As to the kind of experiment: flow cytometry, LS-174T cells.
Regarding B1, the EC50 was 0.0625 µg/mL.
On the same count and under the same terms, the same measure for B3: 0.0809 µg/mL.
